In this experiment the target is T1, D614G S2P probe (SARS-CoV-2, WA-1 with D614G, UniProt A0A6H1PJZ3, D614G | K986P | V987P, biotin on the AVI tag (…)).
T1 construct: also called single mutated D614G S2P
The experiment in a line: BLI. Conditions: both partners purified.

The results in this text go back to article PMC9129042 (PLoS ONE, 2022).

B1: A19-46.1 (antibody, V domains shown)
VH: QVQLVESGGGVVQPGRSLRLSCAASGFTLSSYGMHWVRQAPGKGLEWVAVISYDGSNKYYVDSVKGRFTISRDNSKNTLYLQMNSLRAEDTAVYYCARGWAYWELLPDYYYGMDVWGQGTTVTVSS
VL: QTVVTQEPSFSVSPGGTVTLTCGLSSGSVSTAYFPSWYQQTPGQAPRTLIYGTNTRSSGVPDRFSGSILGNKAALTITGAQADDESDYYCVLYMGRGIVVFGGGTKLTVL
Regarding B1, the binding result is “binds”.
